Test results from patent publication US20200262867A1 (WNTRX PHARMACEUTICALS, published 2020).
Bridges are numbered along the chain shown (N, C = ends). Primed or numbered codes have the meaning given here. Where no end group is shown, it is not given here. Side-chain parts run from the residue outwards. [ ]: non-standard residue; d: D form. The star is where a group is joined. S5′ = (S)-2-(4'-pentenyl)alanine, olefinic stapling residue closed by ring-closing metathesis; NMeQ′ = N-methylglutamine (N-alpha-methyl, stereo named both D and L in the filing); PEG4″ = PEG4 (tetraethylene glycol) spacer; 2Nal = N[C@@H](Cc1ccc2ccccc2c1)C(=O)O; NMeH = CN[C@@H](Cc1c[nH]cn1)C(=O)O; NMeR = CN[C@@H](CCCNC(=N)N)C(=O)O; Palmitoyl = CCCCCCCCCCCCCCCC(=O)*; hArg = N=C(N)NCCCC[C@H](N)C(=O)O; tBuAla = CC(C)(C)C[C@H](N)C(=O)O; NMeQ = CN[C@@H](CCC(N)=O)C(=O)O; Cha = N[C@@H](CC1CCCCC1)C(=O)O; Cit = NC(=O)NCCC[C@H](N)C(=O)O; Cba = N[C@@H](CC1CCC1)C(=O)O; S5 = C=CCCC[C@](C)(N)C(=O)O; Nle = CCCC[C@H](N)C(=O)O; βAla = NCCC(=O)O

T1: β-catenin (UniProt P35222 1-781, limits assumed)
T1 construct: also called beta-catenin
T1 sequence (looked up): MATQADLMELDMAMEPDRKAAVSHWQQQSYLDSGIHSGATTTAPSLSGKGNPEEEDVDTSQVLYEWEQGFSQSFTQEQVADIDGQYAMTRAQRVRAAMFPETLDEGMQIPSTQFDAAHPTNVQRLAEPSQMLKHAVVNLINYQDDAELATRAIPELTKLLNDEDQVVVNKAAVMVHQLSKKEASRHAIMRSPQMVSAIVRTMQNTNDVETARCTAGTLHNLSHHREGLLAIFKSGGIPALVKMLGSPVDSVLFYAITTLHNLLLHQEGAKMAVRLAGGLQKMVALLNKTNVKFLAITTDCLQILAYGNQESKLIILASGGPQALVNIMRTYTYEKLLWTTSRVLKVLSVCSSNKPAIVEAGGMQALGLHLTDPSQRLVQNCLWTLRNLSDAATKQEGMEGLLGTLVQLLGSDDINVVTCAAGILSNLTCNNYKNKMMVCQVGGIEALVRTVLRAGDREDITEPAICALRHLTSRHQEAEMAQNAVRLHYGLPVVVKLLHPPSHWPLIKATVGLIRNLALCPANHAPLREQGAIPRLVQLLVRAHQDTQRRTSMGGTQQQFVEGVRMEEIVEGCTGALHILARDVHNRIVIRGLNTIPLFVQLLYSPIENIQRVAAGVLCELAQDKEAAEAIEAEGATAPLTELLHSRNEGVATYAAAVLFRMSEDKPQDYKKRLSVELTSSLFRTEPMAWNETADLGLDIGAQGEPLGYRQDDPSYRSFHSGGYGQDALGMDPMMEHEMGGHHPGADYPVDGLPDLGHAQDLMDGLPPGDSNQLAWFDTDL


target: T1, β-catenin; experiment: ALPHA Screen (BCL9/β-catenin);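 note: bead proximity readout with the polypeptide linked to donor beads and β-catenin fixed on acceptor beads, their binding bringing the beads close enough to emit signal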
Text: In this assay, a polypeptide is conjugated to a donor bead and its target protein (i.e., β-catenin) is attached to an acceptor bead. When the two beads are in proximity due to the binding of the polypeptide to the target protein, a signal is generated and the binding affinity of the polypeptide can be quantitatively calculated. The assay may be conducted in the presence or absence of an unconjugated control polypeptide.

Binder	IC50 [nM]
Ac-HRQRSLQTL[NMeR][S5]IQR[S5][Cha][2Nal]-NH2 (staple 11-15; SMILES CC[C@H](C)[C@@H]1NC(=O)[C@@](C)(NC(=O)[C@H](CCCNC(=N)N)N(C)C(=O)[C@H](CC(C)C)NC(=O)[C@@H](NC(=O)[C@H](CCC(N)=O)NC(=O)[C@H](CC(C)C)NC(=O)[C@H](CO)NC(=O)[C@H](CCCNC(=N)N)NC(=O)[C@H](CCC(N)=O)NC(=O)[C@H](CCCNC(=N)N)NC(=O)[C@H](Cc2c[nH]cn2)NC(C)=O)[C@@H](C)O)CCCC=CCCC[C@@](C)(C(=O)N[C@@H](CC2CCCCC2)C(=O)N[C@@H](Cc2ccc3ccccc3c2)C(N)=O)NC(=O)[C@H](CCCNC(=N)N)NC(=O)[C@H](CCC(N)=O)NC1=O) [SEQ ID NO: 189]	247
{Palmitoyl-PEG4″}-HRQRSLQTLR[S5]IQR[S5][Cba][2Nal]-NH2 (staple 11-15) [SEQ ID NO: 160]	361
Ac-HRQRSLQTLR[S5]IQ[NMeR][S5][Cha][2Nal]-NH2 (staple 11-15; SMILES CC[C@H](C)[C@@H]1NC(=O)[C@@](C)(NC(=O)[C@H](CCCNC(=N)N)NC(=O)[C@H](CC(C)C)NC(=O)[C@@H](NC(=O)[C@H](CCC(N)=O)NC(=O)[C@H](CC(C)C)NC(=O)[C@H](CO)NC(=O)[C@H](CCCNC(=N)N)NC(=O)[C@H](CCC(N)=O)NC(=O)[C@H](CCCNC(=N)N)NC(=O)[C@H](Cc2c[nH]cn2)NC(C)=O)[C@@H](C)O)CCCC=CCCC[C@@](C)(C(=O)N[C@@H](CC2CCCCC2)C(=O)N[C@@H](Cc2ccc3ccccc3c2)C(N)=O)NC(=O)[C@H](CCCNC(=N)N)N(C)C(=O)[C@H](CCC(N)=O)NC1=O) [SEQ ID NO: 190]	271
Ac-HRQRSLQTLR[S5]IQR[S5][Cba][2Nal]K([PEG4″-Palmitoyl])-NH2 (staple 11-15) [SEQ ID NO: 161]	791
LQTLRDIQRML[2Nal]P [SEQ ID NO: 55]	30300
Ac-HRQRSLQTLR[S5]IQR[S5][tBuAla][2Nal]-NH2 (staple 11-15; SMILES CC[C@H](C)[C@@H]1NC(=O)[C@@](C)(NC(=O)[C@H](CCCNC(=N)N)NC(=O)[C@H](CC(C)C)NC(=O)[C@@H](NC(=O)[C@H](CCC(N)=O)NC(=O)[C@H](CC(C)C)NC(=O)[C@H](CO)NC(=O)[C@H](CCCNC(=N)N)NC(=O)[C@H](CCC(N)=O)NC(=O)[C@H](CCCNC(=N)N)NC(=O)[C@H](Cc2c[nH]cn2)NC(C)=O)[C@@H](C)O)CCCC=CCCC[C@@](C)(C(=O)N[C@@H](CC(C)(C)C)C(=O)N[C@@H](Cc2ccc3ccccc3c2)C(N)=O)NC(=O)[C@H](CCCNC(=N)N)NC(=O)[C@H](CCC(N)=O)NC1=O) [SEQ ID NO: 191]	322
Ac-HR[NMeQ]RSLQTLR[S5]IQR[S5][tBuAla][2Nal]-NH2 (staple 11-15; also: N-methylglutamine 3: D or L (filing names both)) [SEQ ID NO: 193]	323
HRQRSLQTLR[S5]IQ[NMeR][S5][Cba][2Nal] (staple 11-15; not fully specified (residues 3, 7, N-terminus, C-terminus); printed as HR(N-methylQ)RSL(N-methylQ)TLRXIQ(N-methylR)X(CBA)(2-Nal), X/X stapled, (S) α-methyl, N-terminal Ac, C-terminal NH2) [SEQ ID NO: 164]	1480
{Palmitoyl-PEG4″}-L[NMeQ′]TLR[S5]IQR[S5][Cba][2Nal]-NH2 (staple 6-10; also: Q2 N-methyl: stated both D and L) [SEQ ID NO: 213]	466
Ac-EHRERSLQTLR[S5]IQR[S5]L[2Nal]-NH2 (staple 12-16; not fully specified; printed as EHRERSLQTLRXIQRXL(2-Nal)) [SEQ ID NO: 7]	810
Ac-EHRERSLQTLR[S5′]IQR[S5′][Cba][2Nal]-NH2 (staple 12-16; not fully specified; printed as EHRERSLQTLRXIQRX(CBA)(2-Nal)) [SEQ ID NO: 9]	1500
Ac-EHQERSLQTLR[S5]IQR[S5]L[2Nal]-NH2 (staple 12-16; not fully specified; printed as EHQERSLQTLRXIQRXL(2-Nal)) [SEQ ID NO: 12]	4160
Ac-[NMeH]RQRSLQTLR[S5]IQR[S5][Cha][2Nal]-NH2 (staple 11-15; SMILES CC[C@H](C)[C@@H]1NC(=O)[C@@](C)(NC(=O)[C@H](CCCNC(=N)N)NC(=O)[C@H](CC(C)C)NC(=O)[C@@H](NC(=O)[C@H](CCC(N)=O)NC(=O)[C@H](CC(C)C)NC(=O)[C@H](CO)NC(=O)[C@H](CCCNC(=N)N)NC(=O)[C@H](CCC(N)=O)NC(=O)[C@H](CCCNC(=N)N)NC(=O)[C@H](Cc2c[nH]cn2)N(C)C(C)=O)[C@@H](C)O)CCCC=CCCC[C@@](C)(C(=O)N[C@@H](CC2CCCCC2)C(=O)N[C@@H](Cc2ccc3ccccc3c2)C(N)=O)NC(=O)[C@H](CCCNC(=N)N)NC(=O)[C@H](CCC(N)=O)NC1=O) [SEQ ID NO: 215]	9520
Ac-H[hArg]QRSLQTLR[S5]IQ[Cit][S5][Cha][2Nal]-NH2 (staple 11-15; SMILES CC[C@H](C)[C@@H]1NC(=O)[C@@](C)(NC(=O)[C@H](CCCNC(=N)N)NC(=O)[C@H](CC(C)C)NC(=O)[C@@H](NC(=O)[C@H](CCC(N)=O)NC(=O)[C@H](CC(C)C)NC(=O)[C@H](CO)NC(=O)[C@H](CCCNC(=N)N)NC(=O)[C@H](CCC(N)=O)NC(=O)[C@H](CCCCNC(=N)N)NC(=O)[C@H](Cc2c[nH]cn2)NC(C)=O)[C@@H](C)O)CCCC=CCCC[C@@](C)(C(=O)N[C@@H](CC2CCCCC2)C(=O)N[C@@H](Cc2ccc3ccccc3c2)C(N)=O)NC(=O)[C@H](CCCNC(N)=O)NC(=O)[C@H](CCC(N)=O)NC1=O) [SEQ ID NO: 222]	742
{Palmitoyl-PEG4″}-HR[NMeQ′]RSL[NMeQ′]TLR[S5]IQR[S5][Cha][2Nal]-NH2 (staple 11-15; not fully specified) [SEQ ID NO: 207]	354
HRQRSLQTLXXIQRXAA (H(homoArg)QRSLQTL(Cit)XIQRX(Cha)(2-Nal); X/X stapled, (S) α-methyl; N-terminal Ac; C-terminal NH2) [SEQ ID NO: 223]	573
LQTLR[Nle]IQR[Nle]L[2Nal]P [SEQ ID NO: 56]	10100
{Palmitoyl-PEG4″}-H[hArg]QRSLQTLR[S5]IQR[S5][Cha][2Nal]-NH2 (staple 11-15) [SEQ ID NO: 209]	253
Ac-QLEHRERSLQTLR[S5]IQR[S5]L[2Nal]-NH2 (staple 14-18; not fully specified; printed as QLEHRERSLQTLRXIQRXL(2-Nal)) [SEQ ID NO: 8]	770
RSLQTLRDIQRML[2Nal] [SEQ ID NO: 57]	13600
Ac-QLEHRERSL[S5]TLR[S5]IQRML[2Nal]-NH2 (staple 10-14; not fully specified; printed as QLEHRERSLXTLRXIQRML(2-Nal)) [SEQ ID NO: 36]	940
LR[Nle]IQR[Nle]L[2Nal][βAla][βAla] [SEQ ID NO: 49]	6710
RSLQTLR[Nle]IQR[Nle]L[2Nal] [SEQ ID NO: 58]	2840
RERSLQTLRDIQRML[2Nal] [SEQ ID NO: 59]	5950
RERSLQTLR[Nle]IQR[Nle]L[2Nal] [SEQ ID NO: 60]	2420
Ac-LQTLR[S5]IQR[S5]L[2Nal][βAla][βAla]-NH2 (staple 6-10; not fully specified; printed as LQTLRXIQRXL(2-Nal)(β-Ala)(β-Ala)) [SEQ ID NO: 34]	9620
Ac-LQTLR[S5]IQA[S5]L[2Nal]AA-NH2 (staple 6-10; not fully specified; printed as LQTLRXIQAXL(2-Nal)AA) [SEQ ID NO: 27]	6120
